Assay [1] deals with MLO-Y4 (murine long bone osteocyte-Y4) cell line. Briefly: Sclerostin mRNA expression in MLO-Y4 cells. Type of assay: cell-based, mouse. The settings on record: for sclerostin expression levels: 150 nM, 24 h. Here is the method: FIG. 11. […] The cells were incubated with FreeStyle293 medium for 4 hr and treated for 16 hr with indicated concentrations of RUCILP2 or irisin (Upper panel), with the addition at pretreatment with vehicle (phosphate-buffered saline) or 10 μM of integrin inhibitor cRGDyK for 10 min (Lower panel). Data are represented as mean±SEM, n=3 wells/group. Significant differences between two groups were evaluated using a two-tailed, unpaired Student's t test. Upper panel, *, p<0.05, **, p<0.01, #, p<0.05, ##, p<0.01, when compared with the blank group. Lower panel, *, p<0.05, when compared with the vehicle group.
MLO-Y4 cells were donated by Prof Moustapha Kassem from the University of Southern Denmark. The cells were seeded on type I collagen-coated 6-well plates under Minimum Essential Medium (α-MEM from Fisher Scientific, #15430584), supplemented with 2.5% Fetal Bovine Serum (FBS from Fisher Scientific, #11550356), 2.5% calf serum (Hyclone, SH30072.03), and 1% Penicillin-Streptomycin (Fisher Scientific, #11548876). Cell cultures were maintained in a humidified chamber with 5% CO2 at 37° C., and culture media were changed every 2-3 days.
At 60% confluence, medium was switched to FreeStyle293 Expression medium after washing with warm PBS. After 4 hours incubation, the cells were treated with recombinant RUCILP2 or commercial recombinant irisin (Sigma, #SRP8039-10UG and Phoenix pharmaceuticals, #067-29A) or saline for 24 h. For integrin inhibitor treatment, cells were treated with 10 μM of CycloRGDyK (Selleckchem, #S7844) for 10 minutes and washed with PBS before treated with recombinant RUCILP2 or commercial recombinant irisin or saline. After treatments, MLO-Y4 cells were harvested for qRT-PCR analysis of the mRNA level of sclerostin as described in gene expression analysis. […]

Another assay relates to murine C2C12 myoblasts. The assay is described as follows: Myotube formation and myogenesis gene expression in C2C12 myoblasts. Type of assay: cell-based, mouse. How it is done:
FIG. 12. […] The C2C12 myotubes were treated with indicated doses of RUCILP2 overnight and myotube images were collected at magnification, ×10.
FIG. 28. […] White preadipocytes from human visceral fat (C-12732, PromoCell) were cultured until 80% confluent and switched into differentiation media (with 0.3 ml/ml of fetal calf serum (FCS), 8 ug/ml of d-biotin, 0.5ug/ml of insulin, 400 ng/ml of dexamethasone) in the presence of 15 nM of 21-AABP2. The differentiation process to mature adipocytes was completed after 14 days. Cells were harvested after 14 days of differentiation and the indicated genes were quantified by q-PCR. Inguinal fat tissues from 6-week-old wild-type C57BL/6J female mice were dissected and washed with PBS, minced and digested for 1 hour at 37° C. in PBS containing 10 mM CaCl2, 2.4 U/ml dispase II (Roche) and 10 mg/ml collagenase D (Roche). After adding warm DMEM/F12 (1:1) with 10% FCS, digested tissue was filtered through a […] cell strainer and centrifuged at 600×g for 10 minutes. Pellet was resuspended by 40 ml DMEM/F12 (1:1) with 10% FCS and filtered through a […] cell strainer followed by centrifugation at 600×g for 10 minutes. Pelleted inguinal stromal vascular cells were grown to confluence and split onto 12-well plates. The cells were induced to differentiate by treatment with […], 0.5 mM isobutyl methyl xanthine for 2 days. After that, cells were maintained in […] for 4 days with medium change every other day. The cells were treated with 15 nM of 21-AABP2 every other day during 6 days of differentiation. Cells were harvested after 6 days of differentiation and thermogenesis gene were quantified by q-PCR. C2C12 myoblasts (CRL-1772, ATCC) were cultured until 80% confluent and switched into differentiation media (with 2% horse serum). The treatment with 21-AABP2 started from the second day of differentiation. Cells were harvested after 4 days of differentiation and expression of myogenesis genes were quantified by q-PCR. Data are presented as mean+/−SEM of one representative experiment done in biological triplicates. Statistical significance was determined by unpaired two-tailed Student's t test, *, p<0.05
FIG. 29. […] Representative images of myoblasts (CRL-1772, ATCC) at 24h of differentiation in the presence of phosphate buffered saline (PBS, blank) or 21-AABP2 (15 nM). Presented images were from one representative experiment done in biological triplicates.
C2C12 cells were seeded on 12-well plates under DMEM/F-12 medium (Dulbecco's Modified Eagle Medium/Nutrient Mixture F-12, Fisher Scientific, #11524436), supplemented with 10% FBS (Fetal Bovine Serum, Fisher Scientific, #11550356) and 1% Penicillin-Streptomycin (Fisher Scientific, #11548876). Cell cultures were maintained in a humidified chamber with 5% CO2 at 37° C., and culture media were changed every 2-3 days.
At approximately 80% confluence, 10% fetal bovine serum was replaced with 2% horse serum to induce C2C12 myoblast cells to differentiate into myotubes. Twenty-four hours later (day 1 of the differentiation), the cells were treated with recombinant RUCILP2 or commercial recombinant irisin (Sigma, #SRP8039-10UG and Phoenix pharmaceuticals, #067-29A) or saline. For integrin inhibitor treatment, cells were treated with 10 μM of CycloRGDyK (Selleckchem, #S7844) for 10 minutes and washed with PBS before treated with recombinant RUCILP2 or commercial recombinant irisin or saline. At day three, the cells were refreshed with the same media as day one. After treatments for six hours on day 3, C2C12 cells were harvested for qRT-PCR analysis.
C2C12 myoblasts were cultured until 80% confluent and switched into differentiation media (with 2% horse serum). The treatment with 21-AABP2 started from the second day of differentiation. Representative images of the formed myotubes at 24h of differentiation in the presence of PBS (blank) or 21-AABP2 (15 nM) were captured. […]

This is an account of results in US20240336661A1, “PEPTIDES DERIVED FROM RUMINOCOCCUS TORQUES” (University of Copenhagen, priority 2021, published 2024).

B1: RUCILP1: 88 amino acid FNIII domain polypeptide of RUMTOR_00181 from Ruminococcus torques (protein)
chain: APVDVKVSEVTETSAKVSWKNAADGKEAAGYNVYVDGTKVNEELIAETTYNVSSLKDGTTYSVEVTAVDAAGEESAKSEKVEFTTVKK
modifications: Ruminococcus torques
notes: 88 amino acid FNIII domain polypeptide of RUMTOR_00181 from Ruminococcus torques
For B1, the sclerostin expression levels result in assay [1] is on record as “increase”. Besides, the “myotube formation markers Sox8 and Stat3” value with murine C2C12 myoblasts (C2C12 myoblasts, dose-response) was “less dose-dependent”.

B2: RUCILP2: 87 amino acid irisin-like polypeptide cleaved from the Ruminococcus torques FNDC5-like protein RUMTOR_00181; recombinant, 6-His-tagged from E. coli (protein)
chain: APVDVKVSEITETSAKASWKNAADGKEAAGYNVYVDGVKLNKELLTEASCGLTNLKAETTYFVEVTAVDAAGNESVKSEKVTFKTLK
modifications: 6-His tag; Ruminococcus torques
notes: 87 amino acid irisin-like polypeptide cleaved from the Ruminococcus torques FNDC5-like protein RUMTOR_00181; recombinant, 6-His-tagged from E. coli
As to B2, in assay [1], the sclerostin expression levels result is given as “increase”. In addition, the sclerostin expression result in assay [1] (MLO-Y4 cells, treated 16 hr) was “stimulates sclerostin expression”. In the assay on murine C2C12 myoblasts (C2C12, treated overnight), the myotube formation entry was “induces myotube formation”. In the assay with murine C2C12 myoblasts (C2C12 myoblasts, dose-response), the “expression of Heyl” value was “more clear dose-dependence response”; the “myotube formation markers Sox8 and Stat3” value was “less dose-dependent”.
